Laboratory results from patent US20210403552A1 (SHANGHAI GENBASE BIOTECHNOLOGY, published 2021).
Like-named read-outs stand apart in the source and are kept apart here.

T1: mouse CLDN18.2 (mouse, UniProt P56857 10-264)
T1 construct: over-expressed on HEK293T cells by lentivirus; also called mCLDN18.2; murine CLDN18.2
T1 chain: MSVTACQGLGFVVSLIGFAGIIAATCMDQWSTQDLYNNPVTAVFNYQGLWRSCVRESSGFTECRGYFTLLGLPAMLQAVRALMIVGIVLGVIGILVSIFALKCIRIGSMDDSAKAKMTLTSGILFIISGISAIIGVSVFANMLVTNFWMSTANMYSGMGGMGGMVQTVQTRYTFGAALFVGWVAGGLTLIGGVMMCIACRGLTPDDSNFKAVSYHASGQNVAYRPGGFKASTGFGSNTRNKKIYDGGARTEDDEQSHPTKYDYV


Columns and labels:
human CLDN18.1 [1] = target: T2, human CLDN18.1 (human, UniProt P56856 1-261); test: imaging cytometry (% fluorescent cells), HEK293-hCLDN18.1 cells
T2 construct: over-expressed on HEK293T or CHOS cells by lentivirus; also called hCLDN18.1
From the text: (§1) HEK293T-hCLDN18.2 and OCUM-1-hCLDN18.2 expressing human CLDN18.2 (hCLDN18.2), or HEK293T-mCLDN18.2 expressing mouse CLDN18.2 (mCLDN18.2) and the corresponding negative control cell line HEK293T were used; or HEK293T-hCLDN18.1 and CHOS-hCLDN18.1 expressing human CLDN18.1 (hCLDN18.1) were used. DyLight488 goat anti-mouse IgG (Abcam, Catalog No. ab97015) or DyLight488 goat anti-human IgG (Abcam, Catalog No. ab97003) was used as secondary antibody. Binding curves were generated by using the following method.
(§2) 10,000 cells were plated in 100 μL of DMEM containing 10% FBS per well in a flat-bottomed 96-well plate. After the cells adhered or were settled to the bottom of the wells overnight, the supernatant was removed on the next day. […] 100 μL of PBS was added to each well, and then reading was carried out on the cytometer.
(§3) A full-field scanning cytometer (Nexcelom, Celigo® Image Cytometer) was used to measure the readings of the experimental plate. […] The cells that bound the antibody were counted in the image obtained from the green fluorescent channel under the parameters set in accordance with the morphology and fluorescence intensity of the fluorescently labeled cells, and the adhered cells were counted in the image obtained from the bright field channel under the parameters set in accordance with the morphology of the cells.

human CLDN18.1 [2] = target: T2, human CLDN18.1; test: imaging cytometry (% fluorescent cells), CHOS-hCLDN18.1 cells
From the text: as §1, §2, §3

mouse CLDN18.2 = target: T1, mouse CLDN18.2; test: imaging cytometry (% fluorescent cells), HEK293-mCLDN18.2 cells
From the text: as §1
(§4) 10,000 cells were plated in 100 μL of DMEM containing 10% FBS per well in a flat-bottomed 96-well plate. After the cells adhered or were settled to the bottom of the wells overnight, the supernatant was removed on the next day. 3-Fold gradient dilution of antibody was performed by diluting 1/3 of the total volume (i.e., 100 μL) in 200 μL of DMEM. 100 μL of the diluted antibody (the supernatants of fused clones or subclones was used in the screening) was added to each well of the cell plate, 100 μL of DMEM was added to the corresponding negative control well, and incubation was carried out for 1 hour at room temperature. After removing the supernatant, 100 μL of secondary antibody (5 μg/mL, diluted in DMEM) was added to each well, and incubated at room temperature for 0.5 hours. The supernatant was removed after staining, followed by washing with PBS once. 100 μL of PBS was added to each well, and then reading was carried out on the cytometer.
(§5) A full-field scanning cytometer (Nexcelom, Celigo® Image Cytometer) was used to measure the readings of the experimental plate. During the measurement, high-speed scanning imaging of the cells in the well was simultaneously performed in the green fluorescent channel corresponding to the secondary antibody and in the bright field channel. The cells that bound the antibody were counted in the image obtained from the green fluorescent channel under the parameters set in accordance with the morphology and fluorescence intensity of the fluorescently labeled cells, and the adhered cells were counted in the image obtained from the bright field channel under the parameters set in accordance with the morphology of the cells.

human CLDN18.2 [3] = target: T3, human CLDN18.2 (human); test: imaging cytometry (% fluorescent cells), OCUM1-hCLDN18.2 cells
T3 construct: over-expressed on HEK293T or OCUM-1 cells by lentivirus; KATO-III and NUGC4 gastric cancer cells express it naturally; also called hCLDN18.2; hCLDNA18.2
From the text: as §1, §4, §5

human CLDN18.2 [4] = target: T3, human CLDN18.2; test: imaging cytometry (% fluorescent cells), HEK293-hCLDN18.2 cells
From the text: as §1, §4, §5

human CLDN18.2 [5] = target: T3, human CLDN18.2; test: cell-based or functional assay
human CLDN18.2 [6] = target: T3, human CLDN18.2; test: cell-based or functional assay; remark: listed apart in the source
human CLDN18.2 [7] = target: T3, human CLDN18.2; test: cell-based or functional assay; remark: listed apart in the source
human CLDN18.2 [8] = target: T3, human CLDN18.2; test: cell-based or functional assay; remark: listed apart in the source
human CLDN18.2 [9] = target: T3, human CLDN18.2; test: imaging cytometry (% fluorescent cells), HEK293T-hCLDN18.2 cells
Procedure: as §4
as §5, with “cells. […] The data analysis was performed using GraphPad.” for “cells.”

human CLDN18.2 [10] = target: T3, human CLDN18.2; test: cell-based or functional assay; remark: listed apart in the source
human CLDN18.2 [11] = target: T3, human CLDN18.2; test: imaging cytometry (% fluorescent cells), HEK293T-hCLDN18.2 cells; remark: listed apart in the source
Procedure: as §4
as §5, with “cells. […] The data analysis was performed using GraphPad.” for “cells.”

T2 sequence (P56856 whole entry): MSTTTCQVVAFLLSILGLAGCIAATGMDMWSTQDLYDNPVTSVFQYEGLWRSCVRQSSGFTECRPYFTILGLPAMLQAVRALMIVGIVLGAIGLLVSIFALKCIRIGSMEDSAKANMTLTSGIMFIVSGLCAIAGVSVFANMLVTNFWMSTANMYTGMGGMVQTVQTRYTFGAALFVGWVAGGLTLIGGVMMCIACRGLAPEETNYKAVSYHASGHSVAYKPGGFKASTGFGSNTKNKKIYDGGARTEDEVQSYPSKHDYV

Row | EC50 (human CLDN18.1 [1]) | EC50 (human CLDN18.1 [2]) | EC50 (mouse CLDN18.2) | EC50 (human CLDN18.2 [3]) | EC50 (human CLDN18.2 [4]) | ADCC EC50, HEK293T-hCLDN18.2 target cells, human PBMC effectors (human CLDN18.2 [5]) | ADCC EC50, KATO-III target cells, human PBMC effectors (human CLDN18.2 [5]) | ADCC EC50, NUGC4 target cells, human PBMC effectors (human CLDN18.2 [5]) | CDC EC50, KATO-III target cells, human serum (human CLDN18.2 [6]) | CDC EC50, HEK293T-hCLDN18.2 target cells, human serum (human CLDN18.2 [7]) | CDC EC50, KATO-III target cells, human serum (human CLDN18.2 [7]) | ADCC EC50, KATO-III target cells, human PBMC effectors (human CLDN18.2 [8]) | EC50 (human CLDN18.2 [9]) | Internalization percentage (%), HEK293T-hCLDN18.2 cells, flow cytometry, 10 µg/mL antibody (human CLDN18.2 [10]) | EC50 (human CLDN18.2 [11]) | Binder
1 | 0.041 µg/mL | 0.092 µg/mL | 0.691 µg/mL | 0.026 µg/mL | 0.018 µg/mL |  |  |  |  |  |  |  |  |  |  | 1D10 (antibody, V domains shown, murine monoclonal antibody purified from hybridoma culture supernatant; also called ID10) VH: QVQLQQPGAELVKPGASVKLSCKASGYTFTSYWMHWVKQRPGQGLEWIGMIYPNSGSINYNEKFKNKATLTVDKSSSTAYMQLSSLTSEDSAVYFCSVYFDYWGQGTTLTVSS VL: DIQGTQSPSSLSASLGERVSLTCRASQDIGSSLNWLQQEPDGTIKRLIYATSSLDSGVPKRFSVSRSGSDYSLTISSLESEDFVDYYCLQYASSPPTFGGGTKLEIK
2 | 0.714 µg/mL |  | 0.179 µg/mL | 0.068 µg/mL | 0.091 µg/mL |  |  |  |  |  |  |  |  |  |  | 5F9 (antibody, V domains shown, murine monoclonal antibody purified from hybridoma culture supernatant) VH: QVQLQQSGAELVKPGASVKLSCKASGYTFTSYWMHWVKQRPGQGLEWIGMIHPNSVSTNYNEKFKSKATLTVDKSSSTAYMQLSSLTSEDSAVYYCAVYFDYWGQGTTLTVSS VL: DIQVTQSPSSLSASLGERVSLTCRASQDIGSSLNWLQQEPDGTIKRLIYASSSLNSGVPKRFSVSRSGSDYSLTISSLESEDFVDYYCLQYATSPPTFGGGTKLEIK
3 |  |  |  |  |  | 0.0078 µg/mL | 0.099 µg/mL | 0.047 µg/mL | 0.52 µg/mL | 0.6 µg/mL | 0.18 µg/mL | 0.0117 µg/mL | 0.012 µg/mL | -1.5% | 0.027 µg/mL | 44F7-chIgG1 (antibody, V domains shown, human-mouse chimeric antibody, human IgG1/kappa constant regions; also called parental chimeric antibody) VH: QVQLQQSGAELVRPGASVKMSCKASGYTFTSYNMHWVKQAPRQGLEWIGTIYPGNGDTSYNQKFKGKATLTVDKSSSTAYMQLSSLTSEDSAVYFCARGGYYGNSLDYWGQGTTLTVSS VL: DIQMTQSPSSLTVTAGEKVTMSCKSSQSLLNSGNQKNYLTWYQQKPGQPPKLLIYWASTRESGVPDRFTGSGSGTDFTLTISSVQAEDLAVYYCQNAYYYPFTFGSGTKLEIKR
4 |  |  | 0.81 µg/mL | 6.54 µg/mL |  | 0.058 µg/mL | 2.4 µg/mL |  | 34.8 µg/mL | 18.2 µg/mL |  | 0.788 µg/mL | 0.035 µg/mL |  | 0.536 µg/mL | 175D10 (antibody, human IgG1, kappa, V domains shown) VH: QVQLQQPGAELVRPGASVKLSCKASGYTFTSYWINWVKQRPGQGLEWIGNIYPSDSYTNYNQKFKDKATLTVDKSSSTAYMQLSSPTSEDSAVYYCTRSWRGNSFDYWGQGTTLTVSS VL: DIVMTQSPSSLTVTAGEKVTMSCKSSQSLLNSGNQKNYLTWYQQKPGQPPKLLIYWASTRESGVPDRFTGSGSGTDFTLTISSVQAEDLAVYYCQNDYSYPFTFGSGTKLEIKR
5 |  |  |  |  |  |  |  |  | 0.33 µg/mL |  |  | 0.0028 µg/mL | 0.051 µg/mL |  |  | 7004-09hu09 (antibody, human IgG1, kappa, V domains shown, humanized antibody of murine 44F7, human IgG1/kappa constant regions) VH: QVQLVQSGAEVKKPGASVKVSCKASGYTFTSYNMHWVRQAPGQGLEWMGTIYPGNGDTSYNQKFQGRVTMTRDKSTSTVYMELSSLRSEDTAVYFCARGGYYGNSLDYWGQGTLVTVSA VL: DIVMTQSPDSLAVSLGERATINCKSSQSLLNSGNQKNYLAWYQQKPGQPPKLLIYWASTRESGVPDRFSGSGSGTDFTLTISSLQAEDVAVYYCQNAYYYPFTFGQGTKLEIKR
6 |  |  |  |  |  |  |  |  | 0.27 µg/mL |  |  | 0.0033 µg/mL | 0.047 µg/mL |  |  | 7004-09hu10 (antibody, human IgG1, kappa, V domains shown, humanized antibody of murine 44F7, human IgG1/kappa constant regions) VH: QVQLVQSGAEVKKPGASVKVSCKASGYTFTSYYMHWVRQAPGQGLEWMGTIYPGNGDTSYNQKFQGRVTMTRDKSTSTVYMELSSLRSEDTAVYFCARGGYYGNSLDYWGQGTLVTVSA VL: DIVMTQSPDSLAVSLGERATINCKSSQSLLNSGNQKNYLTWYQQKPGQPPKLLIYWASTRESGVPDRFSGSGSGTDFTLTISSLQAEDVAVYYCQNAYYYPFTFGQGTKLEIKR
7 |  |  |  |  |  |  |  |  | 0.27 µg/mL |  |  | 0.0061 µg/mL | 0.008 µg/mL |  |  | 7004-09hu15 (antibody, human IgG1, kappa, V domains shown, humanized antibody of murine 44F7, human IgG1/kappa constant regions) VH: QVQLVQSGAEVKKPGASVKVSCKASGYTFTSYYMHWVRQAPGQGLEWMGTIYPGNGDTSYNQKFQGRVTMTRDKSTSTVYMELSSLRSEDTAVYFCARGGYYGNSLDYWGQGTLVTVSA VL: DIVMTQSPDSLAVSLGERATINCKSSQSVLNSGNQKNYLAWYQQKPGQPPKLLIYWASTRESGVPDRFSGSGSGTDFTLTISSLQAEDVAVYYCQNAYYYPFTFGQGTKLEIKR
